# Test results: PMC12977500, “Mechanistic insights into SteAB regulation of cell wall hydrolase RipA in Mycobacterium tuberculosis” (mBio, 2026)
# B1: MtSteA△TM (truncated soluble construct of M. tuberculosis SteA, residues 12–344) (domain or fragment)
# chain: SRPGLIGIARVDRNIDRLLRRVCPGDIVVLDVLDLDRITADALVEAEIAAVVNASSSVSGRYPNLGPEVLVTNGVTLIDETGPEIFKKVKDGAKVRLYEGGVYAGDRRLIRGTERTDHDIADLMREAKSGLVAHLEAFAGNTIEFIRSESPLLIDGIGIPDVDVDLRRRHVVIVADEPSGPDDLKSLKPFIKEYQPVLVGVGTGADVLRKAGYRPQLIVGDPDQISTEVLKCGAQVVLPADADGHAPGLERIQDLGVGAMTFPAAGSATDLALLLADHHGAALLVTAGHAANIETFFDRTRVQSNPSTFLTRLRVGEKLVDAKAVATLYRNHI
# notes: Dimer in solution and in the crystal; also called Rv1697; not shown: His6, N-terminal, cleaved; SUMO, N-terminal, cleaved
# B2: MtRipACC (coiled-coil domain of M. tuberculosis RipA, residues 40–240) (domain or fragment)
# chain: DPQTDTIAALIADVAKANQRLQDLSDEVQAEQESVNKAMVDVETARDNAAAAEDDLEVSQRAVKDANAAIAAAQHRFDTFAAATYMNGPSVSYLSASSPDEIIATVTAAKTLSASSQAVMANLQRARTERVNTESAARLAKQKADKAAADAKASQDAAVAALTETRRKFDEQREEVQRLAAERDAAQARLQAARLVAWSSE
# modifications: biotin (EZ-Link NHS-PEG4-Biotin, 20 molar excess) in the BLI assays only
# notes: Biotinylated and immobilised on streptavidin sensors for BLI; not biotinylated in the crystal of the complex; also called RipA coiled-coil domain; CC domain of RipA; not shown: His6, N-terminal, cleaved; SUMO, N-terminal, cleaved
# What was measured:
# [1] = biological target: the molecule itself; experiment: SEC-SLS; SEC with triple detection (UV, refractometer, SLS 7° and 90°, viscometer), Superdex 75 Increase 10/300 GL, 25 mM Hepes pH 7.5, 150 mM NaCl, 20°C; sample 1–5 mg/mL
# [2] = biological target: T1, MtSteB△TM (soluble M. tuberculosis SteB devoid of its TM domain, residues 38–314) (Mycobacterium tuberculosis, UniProt P9WJ83 38-314); experiment: BLI; biotinylated MtRipACC immobilised on streptavidin biosensors; Octet-Red384, 25°C; 25 mM HEPES pH 7.5, 150 mM NaCl, 5% glycerol, 1 mg/mL BSA, 0.05% Tween 20; MtSteB 200–3.125 μM or MtRipACAT 80–1.25 μM; steady-state signal, one-site binding model; apparent Kd; settings: both partners purified
# T1 construct: Homodimer in both crystal structures; also called MctB; Rv1698; not shown: His6, N-terminal, cleaved; SUMO, N-terminal, cleaved
# T1 sequence (P9WJ83 38-314): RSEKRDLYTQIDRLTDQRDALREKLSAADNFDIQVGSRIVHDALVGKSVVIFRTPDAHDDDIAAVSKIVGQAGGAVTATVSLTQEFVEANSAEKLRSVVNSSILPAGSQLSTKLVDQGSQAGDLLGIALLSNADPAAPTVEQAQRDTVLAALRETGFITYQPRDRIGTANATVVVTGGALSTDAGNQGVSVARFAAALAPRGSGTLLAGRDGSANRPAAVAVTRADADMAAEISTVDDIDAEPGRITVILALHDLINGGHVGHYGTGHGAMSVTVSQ
Binder,stoichiometry N [1],Kd [2] [µM]
B1,2,–
B2,–,42.6 ± 4.4
